The assay has as its target HSPA5 tagged with Myc (pcDNA3.1) (UniProt P11021). The assay can be described thus: Co-IP (IP: Flag, immunoblot: Myc), band intensity number under the Myc blot. As to conditions: parent: 1.0. Background: In western blotting, separated proteins are transferred to a membrane and probed.
Chain of UniProt P11021 (P11021 19-654): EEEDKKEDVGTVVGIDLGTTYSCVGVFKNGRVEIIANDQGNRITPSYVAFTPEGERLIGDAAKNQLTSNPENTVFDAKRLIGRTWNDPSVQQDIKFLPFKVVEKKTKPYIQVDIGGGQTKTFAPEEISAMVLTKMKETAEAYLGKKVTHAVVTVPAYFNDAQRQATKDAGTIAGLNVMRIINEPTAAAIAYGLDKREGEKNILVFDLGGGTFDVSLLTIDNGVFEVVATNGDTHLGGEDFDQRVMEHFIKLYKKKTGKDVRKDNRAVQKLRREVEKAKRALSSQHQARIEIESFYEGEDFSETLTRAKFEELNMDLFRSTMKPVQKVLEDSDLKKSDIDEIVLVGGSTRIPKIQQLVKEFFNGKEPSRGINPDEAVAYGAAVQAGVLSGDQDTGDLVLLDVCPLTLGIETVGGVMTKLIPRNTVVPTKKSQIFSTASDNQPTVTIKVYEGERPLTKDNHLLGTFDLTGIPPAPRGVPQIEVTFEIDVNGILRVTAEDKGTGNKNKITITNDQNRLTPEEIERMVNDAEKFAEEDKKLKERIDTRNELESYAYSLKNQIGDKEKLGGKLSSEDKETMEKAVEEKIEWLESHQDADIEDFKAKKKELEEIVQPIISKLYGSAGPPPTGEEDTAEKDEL

On to “SBSPON tagged with 3×Flag (pcDNA3.1-3×Flag-SBSPON) (from UniProt Q8IVN8) LYS91Vla”, for which the ratio to parent stood at 0.9. Regarding “SBSPON tagged with 3×Flag (pcDNA3.1-3×Flag-SBSPON) (from UniProt Q8IVN8) ASP88Vla; LYS91Vla; GLU123Vla; HIS134Vla”, the ratio to parent came to 0.8.

Turning to “SBSPON tagged with 3×Flag (pcDNA3.1-3×Flag-SBSPON) (from UniProt Q8IVN8) GLU123Vla”, the ratio to parent was 0.9.

On to “SBSPON tagged with 3×Flag (pcDNA3.1-3×Flag-SBSPON) (from UniProt Q8IVN8) HIS134Vla”, for which the ratio to parent worked out at 0.8. For “SBSPON tagged with 3×Flag (pcDNA3.1-3×Flag-SBSPON) (from UniProt Q8IVN8) ASP88Vla”, the ratio to parent came out at 0.7.
